Measurements: PMC4792069

Target: LAP-tagged hMps1 (LAP-Mps1), stably expressed from a BAC (human) (UniProt P33981)
Assay: fluorescence cross-correlation spectroscopy

Chain of UniProt P33981 (P33981 whole entry): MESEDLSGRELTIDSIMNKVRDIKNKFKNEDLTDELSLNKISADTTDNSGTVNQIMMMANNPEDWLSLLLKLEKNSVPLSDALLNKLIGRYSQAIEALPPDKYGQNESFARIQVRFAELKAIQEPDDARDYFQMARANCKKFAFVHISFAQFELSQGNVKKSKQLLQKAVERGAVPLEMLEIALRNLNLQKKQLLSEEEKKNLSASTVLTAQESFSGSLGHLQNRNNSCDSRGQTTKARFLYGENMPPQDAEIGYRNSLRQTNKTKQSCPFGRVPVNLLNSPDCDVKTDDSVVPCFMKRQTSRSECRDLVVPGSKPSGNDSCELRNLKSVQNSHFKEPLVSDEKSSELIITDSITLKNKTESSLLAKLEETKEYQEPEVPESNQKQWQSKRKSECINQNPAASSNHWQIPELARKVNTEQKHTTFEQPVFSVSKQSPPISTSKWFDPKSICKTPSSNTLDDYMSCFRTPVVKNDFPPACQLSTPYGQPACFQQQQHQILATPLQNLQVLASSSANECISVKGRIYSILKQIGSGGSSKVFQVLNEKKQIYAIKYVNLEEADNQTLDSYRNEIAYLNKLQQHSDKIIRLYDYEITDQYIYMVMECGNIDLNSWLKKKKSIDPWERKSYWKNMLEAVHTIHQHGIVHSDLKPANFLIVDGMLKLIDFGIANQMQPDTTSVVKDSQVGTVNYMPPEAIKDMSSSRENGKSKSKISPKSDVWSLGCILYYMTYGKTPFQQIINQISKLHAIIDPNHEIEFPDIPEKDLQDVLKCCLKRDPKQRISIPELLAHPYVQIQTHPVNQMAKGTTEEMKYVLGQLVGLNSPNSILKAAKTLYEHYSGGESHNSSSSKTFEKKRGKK

mCherry-tagged ARHGEF17 (ARHGEF17-mCherry), Q96PE2 1-2063
normalized cross-correlation (FCCS): 12.4%
